Results on two molecules are retold here after patent US20190336574A1 (TRUSTEES OF PRINCETON UNIVERSITY, published 2019).

Assay [1] has as its target T1, endogenous human SND1 (human breast cancer cells, MDA-MB-231) (human, UniProt Q7KZF4 2-910).
T1 construct: Endogenous protein in cell lysate; also called endogenous SND1 protein
T1 sequence: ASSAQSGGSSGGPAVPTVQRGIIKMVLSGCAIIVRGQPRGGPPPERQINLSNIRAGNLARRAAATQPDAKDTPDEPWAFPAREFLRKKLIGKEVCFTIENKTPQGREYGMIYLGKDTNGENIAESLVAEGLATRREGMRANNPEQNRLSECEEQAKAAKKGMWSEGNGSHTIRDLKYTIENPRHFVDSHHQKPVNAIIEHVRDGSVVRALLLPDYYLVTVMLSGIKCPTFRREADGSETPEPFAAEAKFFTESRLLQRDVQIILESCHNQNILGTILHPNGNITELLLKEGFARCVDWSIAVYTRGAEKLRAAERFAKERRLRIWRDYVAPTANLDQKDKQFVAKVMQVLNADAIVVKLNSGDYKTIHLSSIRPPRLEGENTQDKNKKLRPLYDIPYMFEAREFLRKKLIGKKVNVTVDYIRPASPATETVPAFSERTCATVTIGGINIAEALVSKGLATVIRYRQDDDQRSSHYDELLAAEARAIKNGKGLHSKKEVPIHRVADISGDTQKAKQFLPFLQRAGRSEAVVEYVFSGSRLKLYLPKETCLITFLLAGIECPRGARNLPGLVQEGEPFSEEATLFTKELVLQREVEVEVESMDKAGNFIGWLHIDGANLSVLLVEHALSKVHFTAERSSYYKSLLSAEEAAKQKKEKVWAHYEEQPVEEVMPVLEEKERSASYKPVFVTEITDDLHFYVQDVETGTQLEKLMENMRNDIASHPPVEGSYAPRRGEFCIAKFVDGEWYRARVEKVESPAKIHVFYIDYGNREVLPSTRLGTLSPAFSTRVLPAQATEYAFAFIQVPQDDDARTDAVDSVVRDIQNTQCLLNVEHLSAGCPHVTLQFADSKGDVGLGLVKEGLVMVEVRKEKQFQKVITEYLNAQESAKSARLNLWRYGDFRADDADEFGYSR
The assay is described as follows: competition in endogenous co-IP from MDA-MB-231 lysate (endogenous MTDH, m58, is the competitor); peptide at 50 uM; the sheet prints IP: MTDH, the legend says anti-SND1 [27B]. Here is the method:
Breast cancer cells MDA-MB231 were collected and subjected to IP assay. (FIG. 27A) Cell lysate was incubated with anti-SND1 antibody or IgG overnight followed by 2 hr incubation with Protein A/G beads to pull down endogenous SND1 protein. The beads were washed with lysis buffer and split into 5 fractions. Each fraction was eluted with buffer or indicated peptides for 30 min. The elution fractions and beads were collected for WB. (FIG. 27B) Cell lyaste was split into 5 fractions, and incubated with anti-SND1 antibody plus either buffer or indicated peptides. After 24 hr, the lysate was incubated with Protein A/G beads then the beads were washed in wash buffer.
The interaction interruption effects was confirmed by endogenous immunoprecipitation (IP) of a breast cancer cell line. Briefly, cell lysates from the breast cancer cell line MDA-MB-231 were collected and subjected to IP assay. FIG. 27A—Cell lysate was incubated with anti-SND1 antibody or IgG overnight followed by 2 hr incubation with Protein A/G beads to pull down endogenous SND1 protein. The beads was washed with lysis buffer and split into 5 fractions. Each fraction was eluted with buffer or indicated peptides for 30 min. The elution fractions and beads were collected for WB. FIG. 27B—Cell lyaste was split into 5 fractions, and incubated with anti-SND1 antibody plus either buffer or indicated peptides. […]

The target in assay [2] is T2, HA-SND1, full-length human, wild type (human, UniProt Q7KZF4 1-910).
T2 construct: Full-length, HA-tagged; Expressed in HEK293T cells, tested in lysate; also called HA-tagged SND1; WT HA-SND1
T2 sequence: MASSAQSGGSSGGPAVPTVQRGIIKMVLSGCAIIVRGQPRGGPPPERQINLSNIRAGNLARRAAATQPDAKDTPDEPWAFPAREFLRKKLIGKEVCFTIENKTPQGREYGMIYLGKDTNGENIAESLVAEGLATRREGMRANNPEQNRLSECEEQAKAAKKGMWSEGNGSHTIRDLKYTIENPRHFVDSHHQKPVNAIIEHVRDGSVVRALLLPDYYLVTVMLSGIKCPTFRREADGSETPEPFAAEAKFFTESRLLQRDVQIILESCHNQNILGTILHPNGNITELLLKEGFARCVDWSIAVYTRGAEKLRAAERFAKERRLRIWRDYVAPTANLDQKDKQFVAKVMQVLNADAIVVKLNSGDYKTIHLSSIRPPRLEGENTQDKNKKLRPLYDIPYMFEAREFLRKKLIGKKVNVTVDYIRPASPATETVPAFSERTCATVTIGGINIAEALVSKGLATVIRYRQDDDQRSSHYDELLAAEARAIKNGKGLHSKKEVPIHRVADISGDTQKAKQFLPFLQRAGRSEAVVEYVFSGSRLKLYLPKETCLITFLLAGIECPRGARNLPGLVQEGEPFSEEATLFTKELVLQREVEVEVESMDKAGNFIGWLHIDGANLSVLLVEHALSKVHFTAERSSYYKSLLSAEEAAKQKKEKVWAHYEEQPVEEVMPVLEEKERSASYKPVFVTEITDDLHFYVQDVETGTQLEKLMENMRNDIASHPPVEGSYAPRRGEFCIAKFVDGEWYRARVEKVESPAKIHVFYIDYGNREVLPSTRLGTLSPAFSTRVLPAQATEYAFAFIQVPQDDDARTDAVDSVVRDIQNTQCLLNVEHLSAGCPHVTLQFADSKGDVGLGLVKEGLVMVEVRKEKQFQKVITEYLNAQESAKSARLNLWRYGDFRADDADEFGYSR
The assay is described as follows: competition in co-IP from 293T cells with HA-SND1 and MYC-MTDH (m36 is the competitor); peptide at 50 uM; the sheet prints IP: MYC, the legend says anti-HA [26B, 26C, 26D]. Here is the method:
293 T cells were co-transfected with HA-SND1 and MYC-MTDH. After 48 hours, the cells were collected and subject to immunoprecipitation assay. Cell lysate was incubated with anti-HA antibody or IgG overnight followed by a two hour incubation with Protein A/G beads to pull down HA-SND1 protein. The beads were washed with lysis buffer and split into five fractions.
The elution fractions and beads were collected for western blot. (FIGS. 26C and 26D) Cell lyaste was split into 6 fractions. One of the fractions was incubated with IgG and the rest were incubated with anti-HA antibody plus either buffer or indicated peptides. After 24 hours, the lysate was incubated with Protein A/G beads then the beads was washed followed by wash buffer. 50 uM of peptides was used in all the assays.

The target in assay [3] is T3, His6-SND1ΔC (SND1 residues 1-339) (human, UniProt Q7KZF4 1-339).
T3 construct: not shown: N-terminal His tag (His6, His8 or His) with TEV site, pQlink vector
T3 sequence: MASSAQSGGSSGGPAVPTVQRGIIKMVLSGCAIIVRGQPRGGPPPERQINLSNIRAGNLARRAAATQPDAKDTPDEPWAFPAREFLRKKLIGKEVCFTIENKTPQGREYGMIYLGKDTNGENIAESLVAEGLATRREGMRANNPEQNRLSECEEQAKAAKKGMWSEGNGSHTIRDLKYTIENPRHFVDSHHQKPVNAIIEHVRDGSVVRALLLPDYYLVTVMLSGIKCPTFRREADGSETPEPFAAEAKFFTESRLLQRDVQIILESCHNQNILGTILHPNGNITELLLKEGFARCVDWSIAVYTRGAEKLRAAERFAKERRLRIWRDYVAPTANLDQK
The assay is described as follows: schematic that sums up the GST pull-downs of His6-SND1ΔC. The text has this: FIGS. 7A-E represents determination of key regions and residues mediating the MTDH-SND1 interaction. (FIG. 7A) Schematics of MTDH fragments and mutants with indicated SND1-binding capability. + indicates binding and − indicates no binding based on results shown below. Two putative nuclear localization signals are residues 432-451 for NLS2 and residues 561-580 for NLS3. […] (FIG. 7B) Pulldown of His6-SND1ΔC by GST-tagged MTDH fragments with indicated boundaries. The bound proteins were examined by SDS-PAGE and visualized by Coomassie blue staining. […] For (FIG. 7B) and (FIG. 7C), 1/10 of the His6-SND1ΔC input was shown, and GST alone was used as a negative control. Representative results of 3 independent experiments are shown. (FIG. 7D, FIG. 7E) Lysates from HEK293T cells expressing the indicated ectopic human SND1, AGO2 or MTDH were immunoprecipitated with anti-Myc and immunoblotted with the indicated antibodies.
To further test whether the physical interaction with SND1 is critical for the function of MTDH, detailed analysis on the interaction of the proteins was conducted. SND1 contains four N-terminal Staphylococcal nuclease (SN) repeats and a C-terminal Tudor-SN hybrid domain. […] This allowed us to use the SND1ΔC fragment for the following in vitro binding studies.

Regarding PNSDWNAPAEEWGNW (also called wild type MTDH peptide) [Peptide-wt (PNSDWNAPAEEWGNW)], the binding result in assay [1] and in assay [2] was “binds” each time.

B1: GST-MTDH 406-470 (other)
fusion protein: DEERASLLKSQEPIPDDQKVSDDDKEKGEGALPTGKSKKKKKKKKKQGEDNSTAQDTEELEKEIR
Regarding B1, the binding result in assay [3] was “no binding”.
